Assay results taken from US20090324566A1 (published 2009).

Columns and labels:
[1] = target: T1, MAGE-A4 peptide on HLA-A*02:01 (human); assay: killing
T1 peptide: NYKRCFPVI
Procedure: (§1) The T2 cells, the T2-A24 cells, and T2-A2 cells prepared by transfecting HLA-A0201 gene into T2 cells were washed 3 times with RPMI 1640 medium, and the washed cells were suspended in RPMI 1640 medium so as to have a density of 5×10⁶ cells/mL. P143 or P715 was added to 1 mL each of the above-mentioned cell suspensions so as to have a final concentration of 10 μM, and the mixture was allowed to stand at room temperature for 15 minutes. Thereafter, 1 mL each of RPMI 1640 medium containing 10% FCS was added thereto, and the mixture was incubated at 37° C. for 1 hour. […]
(§2) The ms69 cells, the RNA-transduced ms69 cells, the #2-28 cells, the CD8 positive cells, and the RNA-transduced CD8 cells were washed twice with RPMI 1640 medium, and the washed cells were suspended in RPMI 1640 medium containing 10% FCS so as to have a density of 2×10⁶ cells/mL, 1×10⁶ cells/mL, 5×10⁵ cells/mL, 2.5×10⁵ cells/mL, 1.25×10⁵ cells/mL, and 6.25×10⁴ cells/mL (effector cells), respectively, and a 100 μL portion thereof was put in each well of a 96-well V-bottom plate. […] The mixture was reacted at 37° C. for 4 hours, and thereafter the supernatants were collected by centrifugation, and an amount of ⁵¹Cr released to 100 μL of the supernatant was determined by using a gamma counter. The specific cytotoxic activity was calculated from the measured value of radioactivity according to the following formula.

[2] = target: T2, SAGE peptide on HLA-A*24:02 (human); assay: killing
T2 peptide: LYATVIHDI
Procedure: as §1, §2

[3] = target: T3, MAGE-A4 peptide on HLA-A*24:02 (human); assay: multimer staining
T3 peptide: NYKRCFPVI

B1: HLA-A24-restricted, MAGE-A4 143-151-specific TCR of CTL clone #2-28 (SEQ ID NOs 1 and 2) (TCR, V domains shown)
Valpha: AQSVSQHNHHVILSEAASLELGCNYSYGGTVNLFWYVQYPGQHLQLLLKYFSGDPLVKGIKGFEAEFIKSKFSFNLRKPSVQWSDTAEYFCAGRGGGNKLTFGTGTQLKVEL
Vbeta: DTGVSQNPRHKITKRGQNVTFRCDPISEHNRLYWYRQTLGQGPEFLTYFQNEAQLEKSRLLSDRFSAERPKGSFSTLEIQRTEQGDSAMYLCASSLAQGAGETQYFGPGTRLLVL
B1: no recognition [1]; no recognition [2]; recognises [3].
